The target of test [1] is T1, CRF1R receptor (UniProt P34998 24-415, limits assumed).
T1 sequence (looked up): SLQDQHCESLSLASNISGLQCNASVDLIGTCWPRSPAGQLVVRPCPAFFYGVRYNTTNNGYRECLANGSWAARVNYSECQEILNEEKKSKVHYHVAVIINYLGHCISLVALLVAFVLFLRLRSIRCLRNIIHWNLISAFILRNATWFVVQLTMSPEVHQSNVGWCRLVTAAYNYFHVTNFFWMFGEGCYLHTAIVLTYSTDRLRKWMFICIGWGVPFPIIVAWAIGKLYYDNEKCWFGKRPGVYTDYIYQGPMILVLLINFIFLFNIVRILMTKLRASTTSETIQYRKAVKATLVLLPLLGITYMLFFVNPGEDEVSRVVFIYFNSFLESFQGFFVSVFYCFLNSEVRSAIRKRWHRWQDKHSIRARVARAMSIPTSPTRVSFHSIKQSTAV
The experiment in a line: cell-based or functional assay.

In test [2] the target is human corticotropin-releasing factor 2a (CRF2a receptor) (human), Q13324. The experiment in a line: cell-based or functional assay.
Sequence of human corticotropin-releasing factor 2a (CRF2a receptor) (human), Q13324 (Q13324 20-411): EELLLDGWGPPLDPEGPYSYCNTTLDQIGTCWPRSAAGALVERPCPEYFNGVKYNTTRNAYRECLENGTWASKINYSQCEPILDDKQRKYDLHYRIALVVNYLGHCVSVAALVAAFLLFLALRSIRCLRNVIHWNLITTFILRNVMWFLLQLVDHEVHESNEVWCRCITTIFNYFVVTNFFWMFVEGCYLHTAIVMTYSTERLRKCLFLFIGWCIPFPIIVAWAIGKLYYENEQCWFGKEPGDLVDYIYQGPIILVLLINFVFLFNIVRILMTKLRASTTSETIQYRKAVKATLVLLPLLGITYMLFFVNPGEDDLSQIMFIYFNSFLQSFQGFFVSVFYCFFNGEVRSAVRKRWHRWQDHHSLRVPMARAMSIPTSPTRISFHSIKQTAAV

*1 amine or outer side, *2 acyl side, *3 side chain or, on linkers, in order; H or OH if unused. Where no end group is shown, it is not given here. Side-chain parts run from the residue outwards. [ ]: non-standard residue; d: D form. The star is where a group is joined. C18 diacid = O=C(O)CCCCCCCCCCCCCCCCC(=O)*; C16 diacid = O=C(O)CCCCCCCCCCCCCCC(=O)*; γGlu = O=C(O)[C@H](CCC(=O)[*:2])N[*:1]; NMeI = CC[C@H](C)[C@H](NC)C(=O)O; αMeL = CC(C)C[C@](C)(N)C(=O)O; Pentanoyl = CCCCC(=O)*; AEEA = NCCOCCOCC(=O)O; Aib = CC(C)(N)C(=O)O A value given as a limit tells only on which side of the number the result lay.

B1: SEQ ID NO 111 (peptide)
peptide: Ac-IVLSLD[dV]PIK[αMeL]K([AEEA-AEEA-γGlu-C18 diacid])KILLEQEKQKKQREQAETNVQILAQV-NH2
SMILES: CC[C@H](C)[C@H](NC(C)=O)C(=O)N[C@H](C(=O)N[C@@H](CC(C)C)C(=O)N[C@@H](CO)C(=O)N[C@@H](CC(C)C)C(=O)N[C@@H](CC(=O)O)C(=O)N[C@@H](C(=O)N1CCC[C@H]1C(=O)N[C@H](C(=O)N[C@@H](CCCCN)C(=O)N[C@@](C)(CC(C)C)C(=O)N[C@@H](CCCCNC(=O)COCCOCCNC(=O)COCCOCCNC(=O)CC[C@H](NC(=O)CCCCCCCCCCCCCCCCC(=O)O)C(=O)O)C(=O)N[C@@H](CCCCN)C(=O)N[C@H](C(=O)N[C@@H](CC(C)C)C(=O)N[C@@H](CC(C)C)C(=O)N[C@@H](CCC(=O)O)C(=O)N[C@@H](CCC(N)=O)C(=O)N[C@@H](CCC(=O)O)C(=O)N[C@@H](CCCCN)C(=O)N[C@@H](CCC(N)=O)C(=O)N[C@@H](CCCCN)C(=O)N[C@@H](CCCCN)C(=O)N[C@@H](CCC(N)=O)C(=O)N[C@@H](CCCNC(=N)N)C(=O)N[C@@H](CCC(=O)O)C(=O)N[C@@H](CCC(N)=O)C(=O)N[C@@H](C)C(=O)N[C@@H](CCC(=O)O)C(=O)N[C@H](C(=O)N[C@@H](CC(N)=O)C(=O)N[C@H](C(=O)N[C@@H](CCC(N)=O)C(=O)N[C@H](C(=O)N[C@@H](CC(C)C)C(=O)N[C@@H](C)C(=O)N[C@@H](CCC(N)=O)C(=O)N[C@H](C(N)=O)C(C)C)[C@@H](C)CC)C(C)C)[C@@H](C)O)[C@@H](C)CC)[C@@H](C)CC)C(C)C)C(C)C
As for B1, in test [1], the “Emax (% I)” value is -3%. The EC50 [nM] (cAMP) in test [2] is 2.58 nM.

B2: SEQ ID NO 29 (peptide)
peptide: Pentanoyl-VLSLD[dV]PIKLK([AEEA-AEEA-γGlu-γGlu-C18 diacid])Q[Aib]LLKQERQKKQREQAEKNVQILEQV-NH2
SMILES: CCCCC(=O)N[C@H](C(=O)N[C@@H](CC(C)C)C(=O)N[C@@H](CO)C(=O)N[C@@H](CC(C)C)C(=O)N[C@@H](CC(=O)O)C(=O)N[C@@H](C(=O)N1CCC[C@H]1C(=O)N[C@H](C(=O)N[C@@H](CCCCN)C(=O)N[C@@H](CC(C)C)C(=O)N[C@@H](CCCCNC(=O)COCCOCCNC(=O)COCCOCCNC(=O)CC[C@H](NC(=O)CC[C@H](NC(=O)CCCCCCCCCCCCCCCCC(=O)O)C(=O)O)C(=O)O)C(=O)N[C@@H](CCC(N)=O)C(=O)NC(C)(C)C(=O)N[C@@H](CC(C)C)C(=O)N[C@@H](CC(C)C)C(=O)N[C@@H](CCCCN)C(=O)N[C@@H](CCC(N)=O)C(=O)N[C@@H](CCC(=O)O)C(=O)N[C@@H](CCCNC(=N)N)C(=O)N[C@@H](CCC(N)=O)C(=O)N[C@@H](CCCCN)C(=O)N[C@@H](CCCCN)C(=O)N[C@@H](CCC(N)=O)C(=O)N[C@@H](CCCNC(=N)N)C(=O)N[C@@H](CCC(=O)O)C(=O)N[C@@H](CCC(N)=O)C(=O)N[C@@H](C)C(=O)N[C@@H](CCC(=O)O)C(=O)N[C@@H](CCCCN)C(=O)N[C@@H](CC(N)=O)C(=O)N[C@H](C(=O)N[C@@H](CCC(N)=O)C(=O)N[C@H](C(=O)N[C@@H](CC(C)C)C(=O)N[C@@H](CCC(=O)O)C(=O)N[C@@H](CCC(N)=O)C(=O)N[C@H](C(N)=O)C(C)C)[C@@H](C)CC)C(C)C)[C@@H](C)CC)C(C)C)C(C)C
A word on the EC50: it is the concentration that produces a half-maximal response. Lower therefore signals greater potency. As for B2, in test [1], the “EC50” value was above 250 nM and the “Emax (% I)” value was determined as 6%. Also, the EC50 [nM] (cAMP) in test [2] worked out at 37.2 nM.

B3: SEQ ID NO 28 (peptide)
peptide: [NMeI]VLSLD[dV]PIKLK([AEEA-AEEA-γGlu-γGlu-C18 diacid])Q[Aib]LLKQERQKKQREQAEKNVQILEQV-NH2
modifications: N-terminus assumed
SMILES: CC[C@H](C)[C@H](NC)C(=O)N[C@H](C(=O)N[C@@H](CC(C)C)C(=O)N[C@@H](CO)C(=O)N[C@@H](CC(C)C)C(=O)N[C@@H](CC(=O)O)C(=O)N[C@@H](C(=O)N1CCC[C@H]1C(=O)N[C@H](C(=O)N[C@@H](CCCCN)C(=O)N[C@@H](CC(C)C)C(=O)N[C@@H](CCCCNC(=O)COCCOCCNC(=O)COCCOCCNC(=O)CC[C@H](NC(=O)CC[C@H](NC(=O)CCCCCCCCCCCCCCCCC(=O)O)C(=O)O)C(=O)O)C(=O)N[C@@H](CCC(N)=O)C(=O)NC(C)(C)C(=O)N[C@@H](CC(C)C)C(=O)N[C@@H](CC(C)C)C(=O)N[C@@H](CCCCN)C(=O)N[C@@H](CCC(N)=O)C(=O)N[C@@H](CCC(=O)O)C(=O)N[C@@H](CCCNC(=N)N)C(=O)N[C@@H](CCC(N)=O)C(=O)N[C@@H](CCCCN)C(=O)N[C@@H](CCCCN)C(=O)N[C@@H](CCC(N)=O)C(=O)N[C@@H](CCCNC(=N)N)C(=O)N[C@@H](CCC(=O)O)C(=O)N[C@@H](CCC(N)=O)C(=O)N[C@@H](C)C(=O)N[C@@H](CCC(=O)O)C(=O)N[C@@H](CCCCN)C(=O)N[C@@H](CC(N)=O)C(=O)N[C@H](C(=O)N[C@@H](CCC(N)=O)C(=O)N[C@H](C(=O)N[C@@H](CC(C)C)C(=O)N[C@@H](CCC(=O)O)C(=O)N[C@@H](CCC(N)=O)C(=O)N[C@H](C(N)=O)C(C)C)[C@@H](C)CC)C(C)C)[C@@H](C)CC)C(C)C)C(C)C
B3: in test [1], the “EC50” value was above 250 nM and the “Emax (% I)” value is 6%. In addition, the EC50 [nM] (cAMP) in test [2] came to 2.2 nM.

B4: SEQ ID NO 16 (peptide)
peptide: Ac-IVLSLD[dV]PIKLK([γGlu-C16 diacid])QILLKQERQKKQREQAEKN[Aib]QILEQV-NH2
SMILES: CC[C@H](C)[C@H](NC(C)=O)C(=O)N[C@H](C(=O)N[C@@H](CC(C)C)C(=O)N[C@@H](CO)C(=O)N[C@@H](CC(C)C)C(=O)N[C@@H](CC(=O)O)C(=O)N[C@@H](C(=O)N1CCC[C@H]1C(=O)N[C@H](C(=O)N[C@@H](CCCCN)C(=O)N[C@@H](CC(C)C)C(=O)N[C@@H](CCCCNC(=O)CC[C@H](NC(=O)CCCCCCCCCCCCCCC(=O)O)C(=O)O)C(=O)N[C@@H](CCC(N)=O)C(=O)N[C@H](C(=O)N[C@@H](CC(C)C)C(=O)N[C@@H](CC(C)C)C(=O)N[C@@H](CCCCN)C(=O)N[C@@H](CCC(N)=O)C(=O)N[C@@H](CCC(=O)O)C(=O)N[C@@H](CCCNC(=N)N)C(=O)N[C@@H](CCC(N)=O)C(=O)N[C@@H](CCCCN)C(=O)N[C@@H](CCCCN)C(=O)N[C@@H](CCC(N)=O)C(=O)N[C@@H](CCCNC(=N)N)C(=O)N[C@@H](CCC(=O)O)C(=O)N[C@@H](CCC(N)=O)C(=O)N[C@@H](C)C(=O)N[C@@H](CCC(=O)O)C(=O)N[C@@H](CCCCN)C(=O)N[C@@H](CC(N)=O)C(=O)NC(C)(C)C(=O)N[C@@H](CCC(N)=O)C(=O)N[C@H](C(=O)N[C@@H](CC(C)C)C(=O)N[C@@H](CCC(=O)O)C(=O)N[C@@H](CCC(N)=O)C(=O)N[C@H](C(N)=O)C(C)C)[C@@H](C)CC)[C@@H](C)CC)[C@@H](C)CC)C(C)C)C(C)C
B4: in test [1], the response was half-maximal at 185 nM (EC50) and the “Emax (% I)” value came to 47%. In test [2], this molecule returned an EC50 [nM] (cAMP) of 0.13 nM.

B5: SEQ ID NO 27 (peptide)
peptide: Ac-IVLSLD[dV]PIKLK([AEEA-AEEA-γGlu-γGlu-C18 diacid])Q[Aib]LLKQERQKKQREQAEKNVQILEQV-NH2
SMILES: CC[C@H](C)[C@H](NC(C)=O)C(=O)N[C@H](C(=O)N[C@@H](CC(C)C)C(=O)N[C@@H](CO)C(=O)N[C@@H](CC(C)C)C(=O)N[C@@H](CC(=O)O)C(=O)N[C@@H](C(=O)N1CCC[C@H]1C(=O)N[C@H](C(=O)N[C@@H](CCCCN)C(=O)N[C@@H](CC(C)C)C(=O)N[C@@H](CCCCNC(=O)COCCOCCNC(=O)COCCOCCNC(=O)CC[C@H](NC(=O)CC[C@H](NC(=O)CCCCCCCCCCCCCCCCC(=O)O)C(=O)O)C(=O)O)C(=O)N[C@@H](CCC(N)=O)C(=O)NC(C)(C)C(=O)N[C@@H](CC(C)C)C(=O)N[C@@H](CC(C)C)C(=O)N[C@@H](CCCCN)C(=O)N[C@@H](CCC(N)=O)C(=O)N[C@@H](CCC(=O)O)C(=O)N[C@@H](CCCNC(=N)N)C(=O)N[C@@H](CCC(N)=O)C(=O)N[C@@H](CCCCN)C(=O)N[C@@H](CCCCN)C(=O)N[C@@H](CCC(N)=O)C(=O)N[C@@H](CCCNC(=N)N)C(=O)N[C@@H](CCC(=O)O)C(=O)N[C@@H](CCC(N)=O)C(=O)N[C@@H](C)C(=O)N[C@@H](CCC(=O)O)C(=O)N[C@@H](CCCCN)C(=O)N[C@@H](CC(N)=O)C(=O)N[C@H](C(=O)N[C@@H](CCC(N)=O)C(=O)N[C@H](C(=O)N[C@@H](CC(C)C)C(=O)N[C@@H](CCC(=O)O)C(=O)N[C@@H](CCC(N)=O)C(=O)N[C@H](C(N)=O)C(C)C)[C@@H](C)CC)C(C)C)[C@@H](C)CC)C(C)C)C(C)C
Take B5: in test [1], the “EC50” value is above 250 nM and the “Emax (% I)” value was 7%. Also, in test [2], the EC50 [nM] (cAMP) turned out to be 16.9 nM.

The record behind these values is patent publication US20260001928A1 (CORTERIA PHARMACEUTICALS, priority 2022, published 2026).
